B1: ZNF511 (parent)
chain: FDALDDYEHHYHTLHGNVCSFCKR
B2: C6orf223 (parent)
chain: TLARMSRRTRGPVERAAAAAAAAA
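Also: lentivirally expressed fusions sorted by FACS into six bins by GFP to DsRed ratio, PSI derived from sequencing read proportions per bin multiplied by bin number.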

Variants of: B1
Experiment: protein stability index of a GFP-peptide fusion (GPS, HEK-293T) (PSI 1-6); higher = more stable
Conditions: c terminus: a fixed tail appended
With FRALDDYEHHYHTLHGNVCSFCKR [D2R] the protein stability index was 3.19.
FDAEDDYEHHYHTLHGNVCSFCKR [L4E] gave a protein stability index of 4.41.
With FDAYDDYEHHYHTLHGNVCSFCKR [L4Y] the protein stability index was 3.16.
In the case of FDAQDDYEHHYHTLHGNVCSFCKR [L4Q], the protein stability index is reported as 4.18.
FDASDDYEHHYHTLHGNVCSFCKR [L4S] showed a protein stability index of 4.6.
FDAGDDYEHHYHTLHGNVCSFCKR [L4G] gave a protein stability index of 4.11.
Variant FDAVDDYEHHYHTLHGNVCSFCKR [L4V] has a protein stability index of 3.75.
Variant FDAADDYEHHYHTLHGNVCSFCKR [L4A] has a protein stability index of 4.1.
Variant FDAWDDYEHHYHTLHGNVCSFCKR [L4W] has a protein stability index of 3.43.
Work on FDAHDDYEHHYHTLHGNVCSFCKR [L4H] yielded a protein stability index of 4.48.
FDADDDYEHHYHTLHGNVCSFCKR [L4D] showed a protein stability index of 4.2.
FDAPDDYEHHYHTLHGNVCSFCKR [L4P] gave a protein stability index of 3.54.
Variant FDARDDYEHHYHTLHGNVCSFCKR [L4R] has a protein stability index of 3.93.
Work on FDAKDDYEHHYHTLHGNVCSFCKR [L4K] yielded a protein stability index of 4.39.
In the case of FDATDDYEHHYHTLHGNVCSFCKR [L4T], the protein stability index is reported as 4.44.
For FDAMDDYEHHYHTLHGNVCSFCKR [L4M], the protein stability index was 3.81.
Variant FDACDDYEHHYHTLHGNVCSFCKR [L4C] has a protein stability index of 3.94.
Work on FDAFDDYEHHYHTLHGNVCSFCKR [L4F] yielded a protein stability index of 4.
In the case of FDAIDDYEHHYHTLHGNVCSFCKR [L4I], the protein stability index is reported as 3.56.
In the case of FDANDDYEHHYHTLHGNVCSFCKR [L4N], the protein stability index is reported as 4.51.
For KDALDDYEHHYHTLHGNVCSFCKR [F1K], the protein stability index was 4.28.
With TDALDDYEHHYHTLHGNVCSFCKR [F1T] the protein stability index was 4.28.
NDALDDYEHHYHTLHGNVCSFCKR [F1N] showed a protein stability index of 4.75.
PDALDDYEHHYHTLHGNVCSFCKR [F1P] showed a protein stability index of 4.04.
With WDALDDYEHHYHTLHGNVCSFCKR [F1W] the protein stability index was 3.7.
DDALDDYEHHYHTLHGNVCSFCKR [F1D] gave a protein stability index of 4.31.
VDALDDYEHHYHTLHGNVCSFCKR [F1V] gave a protein stability index of 4.22.
LDALDDYEHHYHTLHGNVCSFCKR [F1L] showed a protein stability index of 4.31.
For QDALDDYEHHYHTLHGNVCSFCKR [F1Q], the protein stability index was 4.11.
With RDALDDYEHHYHTLHGNVCSFCKR [F1R] the protein stability index was 5.08.
In the case of CDALDDYEHHYHTLHGNVCSFCKR [F1C], the protein stability index is reported as 4.38.
With HDALDDYEHHYHTLHGNVCSFCKR [F1H] the protein stability index was 4.46.
MDALDDYEHHYHTLHGNVCSFCKR [F1M] gave a protein stability index of 4.59.
EDALDDYEHHYHTLHGNVCSFCKR [F1E] showed a protein stability index of 4.64.
Variant SDALDDYEHHYHTLHGNVCSFCKR [F1S] has a protein stability index of 4.51.
Variant ADALDDYEHHYHTLHGNVCSFCKR [F1A] has a protein stability index of 4.38.
In the case of YDALDDYEHHYHTLHGNVCSFCKR [F1Y], the protein stability index is reported as 3.59.
In the case of IDALDDYEHHYHTLHGNVCSFCKR [F1I], the protein stability index is reported as 3.43.
GDALDDYEHHYHTLHGNVCSFCKR [F1G] showed a protein stability index of 3.74.
For FDALDDYPHHYHTLHGNVCSFCKR [E8P], the protein stability index was 3.81.
FDALDDYFHHYHTLHGNVCSFCKR [E8F] gave a protein stability index of 2.57.
With FDALDDYSHHYHTLHGNVCSFCKR [E8S] the protein stability index was 3.35.
FDALDDYKHHYHTLHGNVCSFCKR [E8K] showed a protein stability index of 3.05.
FDALDDYRHHYHTLHGNVCSFCKR [E8R] showed a protein stability index of 3.55.
Variant FDALDDYMHHYHTLHGNVCSFCKR [E8M] has a protein stability index of 2.97.
FDALDDYQHHYHTLHGNVCSFCKR [E8Q] gave a protein stability index of 3.63.
For FDALDDYHHHYHTLHGNVCSFCKR [E8H], the protein stability index was 3.63.
FDALDDYVHHYHTLHGNVCSFCKR [E8V] gave a protein stability index of 2.87.
For FDALDDYIHHYHTLHGNVCSFCKR [E8I], the protein stability index was 2.51.
Variant FDALDDYNHHYHTLHGNVCSFCKR [E8N] has a protein stability index of 3.3.
Work on FDALDDYDHHYHTLHGNVCSFCKR [E8D] yielded a protein stability index of 3.82.
FDALDDYAHHYHTLHGNVCSFCKR [E8A] showed a protein stability index of 3.66.
FDALDDYLHHYHTLHGNVCSFCKR [E8L] gave a protein stability index of 2.74.
In the case of FDALDDYCHHYHTLHGNVCSFCKR [E8C], the protein stability index is reported as 4.43.
With FDALDDYTHHYHTLHGNVCSFCKR [E8T] the protein stability index was 3.67.
For FDALDDYGHHYHTLHGNVCSFCKR [E8G], the protein stability index was 3.55.

Variants of: B2
Experiment: as above
Conditions: c terminus: a fixed tail appended
Variant TLARMSRRTRGPVERAYAAAAAAA [A17Y] has a protein stability index of 4.15.
TLARMSRRTRGPVERAFAAAAAAA [A17F] gave a protein stability index of 1.63.
With TLARMSRRTRGPVERATAAAAAAA [A17T] the protein stability index was 3.76.
With TLARMSRRTRGPVERARAAAAAAA [A17R] the protein stability index was 3.5.
TLARMSRRTRGPVERAAAAAWAAA [A21W] showed a protein stability index of 2.83.
Variant TLARMSRRTRGPVERAAAAAVAAA [A21V] has a protein stability index of 2.18.
With TLARMSRRTRGPVERAAAAAMAAA [A21M] the protein stability index was 1.95.
Work on TLARMSRRTRGPVEWAAAAAAAAA [R15W] yielded a protein stability index of 2.01.
In the case of TLARMSRRTRGPVERSAAAAAAAA [A16S], the protein stability index is reported as 3.8.
Work on TLARMSRRTRGPVERAAYAAAAAA [A18Y] yielded a protein stability index of 2.13.
Work on TLARMSRRTRGPVERAAQAAAAAA [A18Q] yielded a protein stability index of 2.4.
For TLARMSRRTRGPVERAAWAAAAAA [A18W], the protein stability index was 2.45.
For TLARMSRRTRGPVERAASAAAAAA [A18S], the protein stability index was 2.48.
With TLARMSRRTRGPVERAAMAAAAAA [A18M] the protein stability index was 1.56.
Work on TLARMSRRTRGPVERAAPAAAAAA [A18P] yielded a protein stability index of 4.09.
Variant TLARMSRRTRGPVERAANAAAAAA [A18N] has a protein stability index of 3.25.
TLARMSRRTRGPVERAATAAAAAA [A18T] gave a protein stability index of 3.57.
Variant TLARMSRRTRGPVERAAIAAAAAA [A18I] has a protein stability index of 3.43.
In the case of TLARMSRRTRGPVERAALAAAAAA [A18L], the protein stability index is reported as 2.92.
TLARMSRRTRGPVERAAAKAAAAA [A19K] gave a protein stability index of 3.43.
TLARMSRRTRGPVERAAAAAAAAF [A24F] showed a protein stability index of 2.35.
TLARMSRRTRGPVERAAAAAAAAP [A24P] gave a protein stability index of 2.23.
For TLARMSRRTRGPVERAAAAAAAAH [A24H], the protein stability index was 4.49.
TLARMSRRTRGPVERAAAAAAACA [A23C] gave a protein stability index of 3.99.
In the case of TLARMSRRTRGPVERAAAAAAAYA [A23Y], the protein stability index is reported as 3.26.
Variant TLARMSRRTRGPVERAAAAAAATA [A23T] has a protein stability index of 4.46.
Work on TLARMSRRTRGPVERAAAAAAAIA [A23I] yielded a protein stability index of 3.49.
TLARMSRRTRGPVERAAAAAAAWA [A23W] showed a protein stability index of 2.18.
Work on TLARMSRRTRGPVERAAAAAAALA [A23L] yielded a protein stability index of 3.09.
TLARMSRRTRGPVERAAAAAAWAA [A22W] gave a protein stability index of 2.68.
TLARMSRRTRGPVERAAAAAACAA [A22C] gave a protein stability index of 3.33.
For TLARMSRRTRGPVERAAAAAANAA [A22N], the protein stability index was 3.38.
TLARMSRRTRGPVERAAAAAATAA [A22T] showed a protein stability index of 3.2.
With TLARMSRRTRGPVERAAAAAAYAA [A22Y] the protein stability index was 2.66.
In the case of TLARMSRRTRGPVERAAAAAAKAA [A22K], the protein stability index is reported as 1.97.
In the case of TLARMSRRTRGPVERAAAAAAFAA [A22F], the protein stability index is reported as 2.37.
Variant TLARMSRRTRGPVERAAAAAAIAA [A22I] has a protein stability index of 2.23.
For TLARMSRRTRGPVERAAAAAALAA [A22L], the protein stability index was 2.4.

From the supplement of paper PMC10567573
